Laboratory results taken from article PMC10316083, “Thermotoga maritima oriC involves a DNA unwinding element with distinct modules and a DnaA-oligomerizing region with a novel directional binding mode” (The Journal of Biological Chemistry, 2023).

Target: the molecule itself
Assay: native gel or EMSA; ATP-bound tmaDnaA on a 30 bp DNA (300 nM) with the oppositely oriented tmaDnaA boxes 2 and 3; complexes with one (C1) or two (C2) tmaDnaA molecules; 8% polyacrylamide gel, GelStar staining; self-interaction read from the preference for C2 on DNA

B1: Thermotoga maritima DnaA initiator (tmaDnaA), wildtype (natural protein, UniProt P46798 1-440, looked up)
chain: MKERILQEIKTRVNRKSWELWFSSFDVKSIEGNKVVFSVGNLFIKEWLEKKYYSVLSKAVKVVLGNDATFEITYEAFEPHSSYSEPLVKKRAVLLTPLNPDYTFENFVVGPGNSFAYHAALEVAKHPGRYNPLFIYGGVGLGKTHLLQSIGNYVVQNEPDLRVMYITSEKFLNDLVDSMKEGKLNEFREKYRKKVDILLIDDVQFLIGKTGVQTELFHTFNELHDSGKQIVICSDREPQKLSEFQDRLVSRFQMGLVAKLEPPDEETRKSIARKMLEIEHGELPEEVLNFVAENVDDNLRRLRGAIIKLLVYKETTGKEVDLKEAILLLKDFIKPNRVKAMDPIDELIEIVAKVTGVPREEILSNSRNVKALTARRIGMYVAKNYLKSSLRTIAEKFNRSHPVVVDSVKKVKDSLLKGNKQLKALIDEVIGEISRRALSG
notes: DnaA chromosomal replication initiator protein of Thermotoga maritima (tmaDnaA); also called WT tmaDnaA; ATP-tmaDnaA; source: purified as described previously (40); plasmid pTHMA-1
  binding result: binds
